The values below are quoted from earlier work in article PMC9381557.

A word on the Kd: it is the free concentration of one partner at which half of the binding sites on the other are occupied at equilibrium, for simple one-to-one binding.

This data set has as its target RAGE V domain (Homo sapiens) (UniProt Q15109).
Chain of UniProt Q15109 (Q15109 23-116): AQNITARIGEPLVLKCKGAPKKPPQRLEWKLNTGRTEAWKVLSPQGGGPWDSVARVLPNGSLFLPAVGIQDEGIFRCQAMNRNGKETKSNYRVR

In the case of S100P (from UniProt P25815), the Kd is 6.8 µM.
